# According to PMC12283126, “The Pseudomonas aeruginosa Type VI secretion system toxin Tse8 evolved from a novel N-carbamoylputrescine amidohydrolase” (Biochemical Journal, 2025):
# B1: P. aeruginosa NCPAH/AguB (PaAguB) (Pseudomonas aeruginosa PAO1) (protein)
# chain: MTRNVTVAATQMACSWDRPANIARAEKLVRQAAARGAQIILIQELFETPYFCQKPNPDYLQLATTVEENAAIAHFQALARELQVVLPISFFERAGRARFNSIAVIDADGGNLGVYRKSHIPDGPGYHEKYYFNPGDTGFKVWQTRYARIGVGICWDQWFPESARSMALLGAELLFYPTAIGSEPHDASISSRDHWQRVQQGHAGANLMPLVASNRIGREEQDGYDITFYGSSFIADPFGEKVEELNRTEEGILVHTFDLDALERTRSAWGVFRDRRPNLYGPLKTLDGSLES
# notes: full length, 292 aa, 32,780 Da; purified recombinant, codon-optimised synthetic gene, expressed in E. coli
# B2: Microterricola gilva AguY (MgAguY) (Microterricola gilva) (protein)
# chain: MTSPTVGKGGIVEAGIDELAAALAAGETSAVALLDAYLARIRAFDAPGTATALNAYVVMNPDARADAEASDARRARGESRGPLDGIPYSAKDSYLAAGLTAAAGSPAFTALIAQQDAFTIERLRTAGAVLIGLTNMPPMANGGMQRGAYGRAESPYNAAWLTAAFGSGSSNGSGTATAASMCAFGLGEETWSSGRAPASNNALCAYTPSRGIISMRGNWPLVPTMDVVVPHTRTMADLLRVLDVIVAEDGDTRGDFWRSQPWLEIPRVDEHRPASYPSLAPTDLAAAQATLRGTRLGVPRMYINGDQDAGTGEPGGIGGPTGQRIETRASVIELWEAARRDLEAAGATVVEVDFPLVSNYEGDRAGAPTITNRGLVSPEFLHTELNDLAAWAWNDFLEMNGDPRLSSLAAVDGERIFPAPPGSLPDRYQGFDDDIADLPRIAAERHWASVEEIEELADGIRGLEHTRAIDFDAWMASNRLDAVVFPAVADVGPADMDVNEASADAGWRNGVWVANGNLVIRHFGIPTVTVPMGLMRDIRMPVGLTFAGLPYDDVALLRLAAAFERTAERRVAPPLSAPPARAHR
# notes: full length, 584 aa, 61,738 Da; purified recombinant, codon-optimised synthetic gene, expressed in E. coli; genome has a second AguY paralog
# B3: Shewanella oneidensis AguY (SoAguY) (Shewanella oneidensis MR-1) (protein)
# chain: MFEVTEVSIAELRAALESGRTTVVELVKSYLARVAAYDGPATETKLNALVVHNPDALKEAEASDARRARGETLSPLDGIPYTAKDSYLVKGLTAASGSPAFKDLVAQYDAFAVERLRAAGAICLGKTNMPPMANGGMQRGHYGRAESPYNAEYLTAPFASGSSNGAGTGTAASYSAFGLAEETWSSGRGPASNNGLCAYTPSRGVISVRGNWPLTPTMDVVVPYTRTMADMLEVLDVIVADDPITRGDLWRLQPWVQIPKASTVRPESYLALAASADTLKGKRFGVPRMYINKDELAGTSENPGIGGPTGQRIHTRQSVIDLWEAARKALEAAGAEVIEVDFPLVSNCEGDRPGAPTVFNRGIVTPQFLHDELWELSGWAFDEFLRANNDPKLNKLEDVVGHLIFPHDLCTLPNREGDLAAGMEEYVNMAKRGLKSFDQIDSIPDGLRGLEKTRKLDLEDWMDGLKLDAVLFPTVADVGPADAHVNPASADIAWSNGVWVANGNLAIRHLGVPTVTVPMGVMADIGMPVGLTFAGRAYDDNNLLKFAGAFESTGNRRIIPPRTPKLGQ
# notes: full length, 568 aa, 60,996 Da; purified recombinant, codon-optimised synthetic gene, expressed in E. coli
# Columns and labels:
# Experiment in all cases: ammonia release, indophenol blue, OD640; Michaelis-Menten fit
# Settings in all cases: 50 mM MES-NaOH pH 7.0, 1 mM DTT, 40 °C, 30 min, 10 nM enzyme
# [1] = substrate: NCCCCNC(N)=O; type: biochemical, Pseudomonas aeruginosa
# Text: ammonia release, indophenol blue, OD640; Michaelis-Menten fit on P. aeruginosa NCPAH/AguB (PaAguB)
# [2] = substrate: NCCCCNC(N)=O; type: biochemical, Microterricola gilva
# Text: ammonia release, indophenol blue, OD640; Michaelis-Menten fit on Microterricola gilva AguY (MgAguY)
# [3] = substrate: NCCCCNC(N)=O; type: biochemical, Shewanella oneidensis
# Text: ammonia release, indophenol blue, OD640; Michaelis-Menten fit on Shewanella oneidensis AguY (SoAguY)
protein,measurement,setting,value
B1,Km,[1],660 ± 110 µM
same,kcat,[1],54.1 ± 3 s⁻¹
same,kcat/Km,[1],82500 ± 8800 M⁻¹ s⁻¹
B2,Km,[2],70 ± 300 µM
same,kcat,[2],39 ± 1.5 s⁻¹
same,kcat/Km,[2],642000 ± 251000 M⁻¹ s⁻¹
B3,Km,[3],740 ± 130 µM
same,kcat,[3],130 ± 4.5 s⁻¹
same,kcat/Km,[3],179000 ± 28600 M⁻¹ s⁻¹
